{
  "source": "patent US20050032689A1",
  "about": "“Methods for treatment or diagnosis of disease or disorders associated with an APB domain” (New York University, priority 1994, published 2005)",
  "molecules": {"B1": {"name": "Shc 1-209: Shc amino terminus, first 209 amino acids of murine p52Shc, generated as a GST fusion protein (protein, UniProt P98083 1-209, looked up, fragment)", "chain": "MDLLPPKPKYNPLRNESLSSLEEGASGSTPPEELPSPSASSLGPILPPLPGDDSPTTLCSFFPRMSNLKLANPAGGRLGPKGEPGKAAEDGEGSAGAALRDSGLLPLLQDMNKLSGGGGRRTRVEGGQLGGEEWTRHGSFVNKPTRGWLHPNDKVMGPGVSYLVRYMGCVEVLQSMRALDFNTRTQVTREAISLVCEAVPGAKGATRRR", "modifications": "GST fusion", "notes": "Shc amino terminus, first 209 amino acids of murine p52Shc, generated as a GST fusion protein"}},
  "key": {"[1]": {"tested_on": "HER2/neu (HER1/2 chimera)", "assay": "Binding of GST-Shc fusion proteins to HER1/2 chimera from NIH 3T3 lysates, anti-phosphotyrosine blot", "conditions": "EGF-stimulated NIH 3T3 lysates", "experimental": "FIGS. 4A, 4B, 4C and 4D. Binding of Shc fragments to growth factor receptors. A, schematic diagram illustrating the Shc fragments used in binding studies. Full length murine p52^shc is indicated in (i) while (ii)-(vi) were generated as GST fusion proteins for use in receptor binding studies. B, association of various GST fusion proteins with activated EGF receptor (EGFR). Binding was performed as in FIG. 2A with the exception that all lysates were stimulated with EGF. All studies used 3 μg of fusion proteins except for the Shc SH2 where 10 μg was used. Immunoblotting was performed with anti-phosphotyrosine. C, binding of Shc fusion proteins to NIH 3T3 cells expressing a HER1/2 chimera. This chimera consists of the EGF receptor extracellular binding domain and the intracellular region of HER2/neu. After stimulation of these cells with EGF (200 ng/ml) lysates were prepared and binding as well as blotting studies were performed as in B using anti-phosphotyrosine antibody. D, binding of Shc 1-209 to TrkA. Beads containing 10 μg of GST fusion proteins Shc 1-209, phospholipase C-γ (PLC-γ) SH2 (contains both N and C SH2 domains), or GST alone were added to lysates from 2×10^7 PC12 cells stimulated with 50 ng/ml nerve growth factor (lanes 1, 2, and 4). The binding of the same amount of lysate to 2 μg of anti-TrkA antibody is shown as a positive control and to indicate the position of TrkA on the blot (lane 3). Otherwise, the binding and blotting were performed as in B using anti-phosphotyrosine antibody. […] Protein concentration was determined by SDS-PAGE (polyacrylamide gel electrophoresis) using bovine serum albumin as a standard. […]"}, "EGF receptor": {"target": "T1, EGF receptor (Homo sapiens, UniProt P00533)", "T1 construct": "expressed in transfected cells; host or cells: HER14 (NIH 3T3 cells expressing human EGF receptor)", "assay": "Binding of GST fusion proteins to immunoprecipitated EGF receptor phosphorylated in vitro, anti-GST blot", "conditions": "immunoprecipitated receptor from unstimulated cells, with or without Mn2+ and ATP", "experimental": "FIGS. 2A and 2B. Association of GST-Shc 1-209 with the EGF Receptor (EGFR). A, HER14 lysates from either EGF-stimulated (+) or unstimulated (−) cells (5×10^6 cells) were incubated with 3 μg of GST fusion protein immobilized on glutathione-agarose beads. The bound proteins were washed, subjected to SDS-PAGE, transferred to nitrocellulose and immunoblotted with anti-EGF receptor antibody, anti-C (anti-EGFR). HER14 lysate (4×10^5 cells) was run directly on the gel in lanes 5 and 6. B, unstimulated HER14 lysates (5×10^6 cells) were immunoprecipitated with anti-EGFR antibody (mAb 108). The immobilized receptor was then phosphorylated (+) by the addition of 5 mM MnCl2 and 50 μM ATP or left unphosphorylated (−) by adding MnCl2 alone. Bacterial lysates containing 5 μg of GST, GST-Grb7, and GST-Shc 1-209 were then diluted in 1 ml of 1% Triton X-100 lysis buffer, added to the immobilized receptor and incubated at 4° C. for 90 min. The bound proteins were washed and together with 40 μl of the post-binding supernatant separated by SDS-PAGE and transferred to nitrocellulose. […]\nBinding Studies—GST fusion proteins were expressed using standard techniques (Ausubel, F. M., et al. Current Protocols in Molecular Biology, (1992) Wiley Interscience, New York). Protein concentration was determined by SDS-PAGE (polyacrylamide gel electrophoresis) using bovine serum albumin as a standard. […]"}},
  "data": [
    {"molecule": "B1", "values": [
      {"measurement": "binding to HER2/neu", "setting": "[1]", "result": "bound to HER2/neu"},
      {"measurement": "binding to EGF receptor phosphorylated in vitro", "setting": "EGF receptor", "result": "bound directly to phosphorylated but not non-phosphorylated receptors"}
    ]}
  ]
}
